# Results: IntAct's records for PubMed 20417604
# B1: Ataxin-1 (Homo sapiens), P54253 (parent)
# chain: MKSNQERSNECLPPKKREIPATSRSSEEKAPTLPSDNHRVEGTAWLPGNPGGRGHGGGRHGPAGTSVELGLQQGIGLHKALSTGLDYSPPSAPRSVPVATTLPAAYATPQPGTPVSPVQYAHLPHTFQFIGSSQYSGTYASFIPSQLIPPTANPVTSAVASAAGATTPSQRSQLEAYSTLLANMGSLSQTPGHKAEQQQQQQQQQQQQHQHQQQQQQQQQQQQQQHLSRAPGLITPGSPPPAQQNQYVHISSSPQNTGRTASPPAIPVHLHPHQTMIPHTLTLGPPSQVVMQYADSGSHFVPREATKKAESSRLQQAIQAKEVLNGEMEKSRRYGAPSSADLGLGKAGGKSVPHPYESRHVVVHPSPSDYSSRDPSGVRASVMVLPNSNTPAADLEVQQATHREASPSTLNDKSGLHLGKPGHRSYALSPHTVIQTTHSASEPLPVGLPATAFYAGTQPPVIGYLSGQQQAITYAGSLPQHLVIPGTQPLLIPVGSTDMEASGAAPAIVTSSPQFAAVPHTFVTTALPKSENFNPEALVTQAAYPAMVQAQIHLPVVQSVASPAAAPPTLPPYFMKGSIIQLANGELKKVEDLKTEDFIQSAEISNDLKIDSSTVERIEDSHSPGVAVIQFAVGEHRAQVSVEVLVEYPFFVFGQGWSSCCPERTSQLFDLPCSKLSVGDVCISLTLKNLKNGSVKKGQPVDPASVLLKHSKADGLAGSRHRYAEQENGINQGSAQMLSENGELKFPEKMGLPAAPFLTKIEPSKPAATRKRRWSAPESRKLEKSEDEPPLTLPKPSLIPQEVKICIEGRSNVGK
# Variants of: B1
# Details: with wdfy3_human WDFY3, Q8IZQ1
# Sequence of wdfy3_human WDFY3, Q8IZQ1 (Q8IZQ1 whole entry): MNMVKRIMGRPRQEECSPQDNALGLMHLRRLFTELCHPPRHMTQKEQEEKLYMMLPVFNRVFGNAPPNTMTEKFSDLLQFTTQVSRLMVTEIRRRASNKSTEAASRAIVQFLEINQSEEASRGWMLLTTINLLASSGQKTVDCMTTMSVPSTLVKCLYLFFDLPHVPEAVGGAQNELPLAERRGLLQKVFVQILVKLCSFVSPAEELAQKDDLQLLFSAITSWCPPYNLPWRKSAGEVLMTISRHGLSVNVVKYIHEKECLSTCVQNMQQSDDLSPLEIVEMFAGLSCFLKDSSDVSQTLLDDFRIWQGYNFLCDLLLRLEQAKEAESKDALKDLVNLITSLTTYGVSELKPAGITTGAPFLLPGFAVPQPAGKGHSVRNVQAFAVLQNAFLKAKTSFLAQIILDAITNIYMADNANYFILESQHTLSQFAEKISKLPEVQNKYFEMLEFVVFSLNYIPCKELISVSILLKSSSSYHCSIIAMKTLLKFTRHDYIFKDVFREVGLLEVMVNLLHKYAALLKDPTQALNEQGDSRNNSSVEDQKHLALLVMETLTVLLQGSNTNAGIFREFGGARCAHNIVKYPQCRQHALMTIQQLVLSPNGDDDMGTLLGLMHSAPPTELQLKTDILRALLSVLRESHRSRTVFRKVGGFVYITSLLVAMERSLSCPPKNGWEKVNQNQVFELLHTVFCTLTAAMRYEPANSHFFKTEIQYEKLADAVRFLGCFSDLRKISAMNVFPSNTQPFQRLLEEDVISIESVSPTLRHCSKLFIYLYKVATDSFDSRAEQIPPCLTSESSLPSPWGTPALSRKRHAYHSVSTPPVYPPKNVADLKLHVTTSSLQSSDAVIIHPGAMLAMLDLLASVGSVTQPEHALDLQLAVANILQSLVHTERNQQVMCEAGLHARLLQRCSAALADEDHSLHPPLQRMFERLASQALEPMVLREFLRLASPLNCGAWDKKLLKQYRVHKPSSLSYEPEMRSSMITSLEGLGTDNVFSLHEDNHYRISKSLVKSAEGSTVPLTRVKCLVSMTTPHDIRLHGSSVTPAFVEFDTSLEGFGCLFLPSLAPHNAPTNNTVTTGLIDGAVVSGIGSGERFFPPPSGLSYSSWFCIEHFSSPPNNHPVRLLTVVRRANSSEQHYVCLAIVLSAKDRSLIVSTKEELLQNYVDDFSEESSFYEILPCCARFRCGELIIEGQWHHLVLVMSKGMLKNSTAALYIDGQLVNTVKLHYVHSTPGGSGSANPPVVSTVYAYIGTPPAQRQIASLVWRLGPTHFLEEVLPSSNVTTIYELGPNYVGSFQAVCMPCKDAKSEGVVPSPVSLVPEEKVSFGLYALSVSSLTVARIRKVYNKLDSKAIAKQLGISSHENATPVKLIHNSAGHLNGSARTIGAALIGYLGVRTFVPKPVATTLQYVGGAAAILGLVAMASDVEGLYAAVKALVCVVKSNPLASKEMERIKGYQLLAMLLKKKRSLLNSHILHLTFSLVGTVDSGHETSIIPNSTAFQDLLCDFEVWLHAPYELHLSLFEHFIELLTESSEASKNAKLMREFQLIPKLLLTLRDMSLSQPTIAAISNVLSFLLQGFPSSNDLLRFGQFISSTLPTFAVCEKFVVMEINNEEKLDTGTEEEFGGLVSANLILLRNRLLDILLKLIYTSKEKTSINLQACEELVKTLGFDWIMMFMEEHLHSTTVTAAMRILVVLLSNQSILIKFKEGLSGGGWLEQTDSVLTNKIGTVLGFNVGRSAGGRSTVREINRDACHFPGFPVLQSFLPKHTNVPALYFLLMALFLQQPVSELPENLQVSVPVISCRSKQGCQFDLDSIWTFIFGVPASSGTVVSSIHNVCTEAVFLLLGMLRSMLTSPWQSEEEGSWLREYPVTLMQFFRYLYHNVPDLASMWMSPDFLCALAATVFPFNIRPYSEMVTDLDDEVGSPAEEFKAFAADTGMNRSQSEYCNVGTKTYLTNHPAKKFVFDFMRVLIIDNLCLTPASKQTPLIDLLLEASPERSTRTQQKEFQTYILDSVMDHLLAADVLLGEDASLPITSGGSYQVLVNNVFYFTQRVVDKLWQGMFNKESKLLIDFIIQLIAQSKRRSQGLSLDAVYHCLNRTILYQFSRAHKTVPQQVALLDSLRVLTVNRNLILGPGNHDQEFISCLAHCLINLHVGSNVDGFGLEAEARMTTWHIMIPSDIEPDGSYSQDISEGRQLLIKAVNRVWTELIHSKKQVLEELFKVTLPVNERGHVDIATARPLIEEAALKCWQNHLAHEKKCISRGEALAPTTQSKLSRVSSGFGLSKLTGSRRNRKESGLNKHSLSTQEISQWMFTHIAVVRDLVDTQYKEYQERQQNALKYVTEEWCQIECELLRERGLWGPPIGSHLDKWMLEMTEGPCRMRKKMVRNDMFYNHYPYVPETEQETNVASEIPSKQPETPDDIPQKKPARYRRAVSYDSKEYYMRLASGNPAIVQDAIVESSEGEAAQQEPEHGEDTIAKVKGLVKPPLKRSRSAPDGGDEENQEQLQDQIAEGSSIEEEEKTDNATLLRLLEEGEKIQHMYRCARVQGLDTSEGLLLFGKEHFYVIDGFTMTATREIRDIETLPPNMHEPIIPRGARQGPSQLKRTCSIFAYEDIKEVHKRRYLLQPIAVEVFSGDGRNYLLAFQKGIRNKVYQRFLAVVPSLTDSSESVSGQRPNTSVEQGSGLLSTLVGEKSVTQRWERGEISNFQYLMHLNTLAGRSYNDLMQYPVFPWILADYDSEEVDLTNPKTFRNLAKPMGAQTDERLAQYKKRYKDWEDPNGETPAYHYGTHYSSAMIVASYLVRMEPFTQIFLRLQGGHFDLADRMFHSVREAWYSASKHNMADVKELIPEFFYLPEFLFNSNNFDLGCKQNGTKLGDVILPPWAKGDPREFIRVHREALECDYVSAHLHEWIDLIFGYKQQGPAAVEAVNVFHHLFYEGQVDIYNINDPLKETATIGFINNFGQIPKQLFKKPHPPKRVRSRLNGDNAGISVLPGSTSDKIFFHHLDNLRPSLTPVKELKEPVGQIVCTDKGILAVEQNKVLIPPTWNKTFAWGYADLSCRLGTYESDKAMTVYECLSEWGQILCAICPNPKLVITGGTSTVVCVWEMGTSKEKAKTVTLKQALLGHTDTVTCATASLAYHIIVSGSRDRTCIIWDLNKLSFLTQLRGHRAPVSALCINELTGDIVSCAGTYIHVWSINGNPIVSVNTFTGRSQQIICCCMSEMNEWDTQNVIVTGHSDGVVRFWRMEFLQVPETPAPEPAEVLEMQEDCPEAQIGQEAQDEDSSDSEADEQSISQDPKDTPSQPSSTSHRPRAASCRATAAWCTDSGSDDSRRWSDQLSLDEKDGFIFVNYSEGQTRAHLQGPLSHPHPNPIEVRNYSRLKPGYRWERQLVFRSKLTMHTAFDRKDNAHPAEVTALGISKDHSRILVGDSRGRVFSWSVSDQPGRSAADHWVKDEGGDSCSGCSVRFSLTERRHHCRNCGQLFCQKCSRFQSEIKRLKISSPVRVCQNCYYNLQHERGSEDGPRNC
row,Variant,effect of a mutation on the interaction
1,K771T,disrupting interaction
